Results on 4 molecules are retold here after publication PMC10684580, “Unexpected dynamics in femtomolar complexes of binding proteins with peptides” (Nature Communications, 2023).

In general, koff refers to the rate constant with which the complex falls apart. A high value points to a short-lived complex.

For assay [1], the system named is N^AM4C. The assay is described as follows: [15N,1H]-HSQC peptide titration, N^AM4C/NM4C. Type of assay: binding. The note with it: 310 K, 250 μM dArmRP. As for the experimental part:
All experiments were recorded on Bruker Neo 600 or 700 MHz spectrometers, employing cryogenically cooled or Prodigy ^1H, ^13C, ^15N triple-resonance probes. Pulse field gradients with coherence selection[46] were applied to all heteronuclear ^15N,^1H experiments using standard Bruker pulse sequences, together with the Rance-Palmer method for sensitivity enhancement. All spectra were processed in TOPSPIN using cosine-bell-shifted window functions prior to Fourier transformation, and analyzed in CARA[48]. Chemical shift assignments were obtained from triple-resonance and HCCH-type 3D NMR experiments using the standard Bruker pulse-program library. […]
(§1) The peptides were dissolved in NMR buffer to generate 10 mM stocks that were titrated in 0.1 molar equivalents steps to 250 μM dArmRPs in NMR buffer up to 1.5 equivalents, and then in 0.5 equivalents steps up to 5.5 equivalents. For each step, a [^15N,^1H]-HSQC experiment was recorded at 310 K with the other parameters described above.
Assignments of the spectra required for CSPs were performed through segmental labeling as detailed in the Results section. […] CSPs were calculated using the following formula[50]9 δHf−δHb/1^2+δNf−δNb/4^2 where δH and δN represent the chemical shifts in the proton and nitrogen dimensions, respectively, while f and b represent the free and bound states, respectively. […]

Assay [2] concerns N^AM4C. In words: NMR line-shape simulation, N^AM4C peptide titration (three-state). Type of assay: binding. The note with it: three-state model, 310 K. The protocol: as §1
The change of line-shape and peak positions in the [^15N,^1H]-HSQC spectra upon adding (KR)n was simulated using in-house written Mathematica notebooks. In principle, for the simple two-state process of ligand binding, described only by single kon and koff rates and the concentrations used, the modified Bloch McConnell equations[49] can be used. […]
For simplicity, the same transverse relaxation rate R2 was assumed for all protein states and the chemical shift of the partially unbound state PL^* to be the same as for the free protein, that is ΩP . ΩPL is the chemical shift of the bound state and L the equilibrium concentration of the free peptide. […] Thereby the k1,on and k1,off rate constants were chosen such that their ratio was in the range of the measured or predicted Kd values[21] and that all signals during the titration could be fitted well (see text, Supplementary Fig. 12). […]

Assay [3] has as its target N^AM7C designed Armadillo repeat protein (dArmRP) with the N^A cap, seven identical internal modules M and the C cap. The assay is described as follows: NMR titration; line-shape simulation of traces from [15N,1H]-HSQC titrations; three-state model P + L = PL = PL*; parameters adjusted by visual inspection, k1,on and k1,off chosen so that their ratio fits the measured or predicted Kd.

Assay [4] addresses N^YM7C designed Armadillo repeat protein (dArmRP) with the N^Y cap, seven identical internal modules M and the C cap. In words: NMR titration; [15N,1H]-HSQC chemical shift perturbations; 10 mM peptide stock titrated in 0.1 equivalent steps to 250 uM dArmRP in NMR buffer up to 1.5 equivalents, then 0.5 equivalent steps up to 5.5 equivalents; 310 K.
Assay [5] addresses N^AM4C designed Armadillo repeat protein (dArmRP) with the redesigned N^A (artificial) cap, four identical internal modules M and the C cap. The description is as above.
Another assay addresses mCherry-tagged N^YM7C. The assay is described as follows: FRET or BRET; FRET-based stopped-flow assay; 20 nM GFP-tagged peptide mixed 1:1 (volume) with 50-250 nM mCherry-tagged NM7C for kon; koff from competition: preincubated 50 nM tagged peptide and 40 nM tagged protein mixed 1:1 with 2 uM unlabeled competitor. For orientation: BRET reads energy transfer from a luciferase to a nearby fluorophore.

Assay [6] concerns the target N^AM4C designed Armadillo repeat protein (dArmRP) with the redesigned N^A (artificial) cap, four identical internal modules M and the C cap. The assay is described as follows: NMR titration; line-shape simulation of traces from [15N,1H]-HSQC titrations; three-state model P + L = PL = PL*; parameters adjusted by visual inspection, k1,on and k1,off chosen so that their ratio fits the measured or predicted Kd.

Regarding (Lys-Arg)4 [(KR)4], in the assay on N^AM4C [1], the “peptide required for full saturation” value is reported as 1.3 equiv. Moreover, in the assay with N^AM4C [2], the “k2 (isomerization of bound state, PL to PL*)” value is listed as 30 s^–1 and the “k2’ (PL* to PL)” value is on record as 700 s^–1.
For the molecule Ac-KRKRKRKRKRKRKR-OH [(KR)7 peptide], in assay [3], the k1,off (step 1, overall unbinding; line-shape simulation parameter) was 0.0003 s^–1; the k1,on (step 1, overall binding; line-shape simulation parameter) was 6.2e+08 M^–1·s^–1; the k2 (step 2, exchange in the bound state, PL to PL*) is 30 s^–1; the k2’ (step 2, exchange in the bound state, PL* to PL) is 100 s^–1. Also, the equivalents of peptide required for full saturation in assay [4] was determined as 1 equiv. Also, the equivalents of peptide required for full saturation in assay [5] was found to be 1 equiv.
Regarding KRKRKRKR [GFP-tagged (KR)4 peptide], the koff with mCherry-tagged N^YM7C is 0.23 s⁻¹.
As to Ac-KRKRKRKR-OH [(KR)4 peptide, (Lys-Arg)4 octapeptide], in assay [6], the k1,off (step 1, overall unbinding; line-shape simulation parameter) was 300 s^–1; the k1,on (step 1, overall binding; line-shape simulation parameter) is 1e+09 M⁻¹ s⁻¹; the k2 (step 2, exchange in the bound state, PL to PL*) is 30 s^–1; the k2’ (step 2, exchange in the bound state, PL* to PL) is 700 s^–1. Besides, in assay [5], the equivalents of peptide required for full saturation is 1.3 equiv.
